In publication PMC11200239 one finds stoichiometry N data, which are given here for one substance.

The term stoichiometry N denotes the number of molecules, sites or subunits per partner or assembly.

The target in this test is MerA variant G415I (P. aeruginosa) (UniProt P00392). The experiment in a line: SEC-MALS. A general note: SEC sorts molecules by how far they enter the pores of the column.

In turn, “MerA variant G415I (from UniProt P00392 96-561) (enzyme)” had a stoichiometry N of 2.
